Drawing on PMC6031666, this text covers pKa for one substance.

This data set concerns His51. Put plainly: NMR. Particulars: 298 K; 100 mM NaCl, 5 mM CaCl2; 20 mM deuterated MES (pH 5.5, 6.0, 6.5, 7.2, 8.5) or 20 mM deuterated Tris (pH 8.5), 0.02% NaN3; Inhibitor-bound (Bz-Nle-Lys-Arg-Arg-B(OH)2, a tetrahedral transition-state mimic), NS2B-bound, folded. Two complex forms are in equilibrium.

Turning to “NS3 serine protease domain (NS3pro) in complex with NS2B cofactor segment (Dengue virus type 2 (DENV2))”, the pKa entry is reported as “remain fully protonated over the investigated pH range (5.5–8.5)”.
